Measured values from paper PMC9666628.
“And” between values parts separate entries of the source, which are not always exact repeats. Identical values can stand only once.

Tests used:
[1] = target: H3K9me3 peptide, FITC-labeled; assay: fluorescence polarisation; 0.5 nM FITC-labeled peptide, chromodomain serially diluted (wild types 200-0.2 µM; Cbx7.V1 and Cbx.VDs 50 µM-50 nM); 25 °C, 30 min; 25 mM HEPES pH 7.5, 150 mM NaCl, 1 mM DTT, 0.01% TritonX-100; one-site total binding model; values of single replicates
[2] = target: H3K27 peptide (non-methylated), N-terminal biotin; assay: phage ELISA; settings: read off a plot
[3] = target: H3K27me3 peptide, N-terminal biotin; assay: phage ELISA; settings: read off a plot
[4] = target: H3K27me3 peptide, N-terminal FITC; assay: fluorescence polarisation; 0.5 nM FITC-labelled peptide; chromodomains 200-0.2 µM (wild type) or 50 µM-50 nM (Cbx7.V1 and all Cbx.VDs); 30 min at 25 °C; 25 mM HEPES pH 7.5, 150 mM NaCl, 1 mM DTT, 0.01% TritonX-100; one-site total binding model
[5] = target: H3K9me3 peptide, N-terminal FITC; assay: as above
[6] = target: FITC-labeled H3K9me3 peptide; assay: fluorescence polarisation; 0.5 nM FITC-labeled peptide, chromodomain serially diluted (wild type 200-0.2 µM; Cbx7.V1 50 µM-50 nM); 25 mM HEPES pH 7.5, 150 mM NaCl, 1 mM DTT, 0.01% TritonX-100; 30 min at 25 °C; one-site total binding model
[7] = target: Histone H3 H3K9me3 peptide (Homo sapiens) (UniProt P68431); settings: cited from earlier work
[8] = target: H3K27me3 peptide, FITC-labeled; assay: fluorescence polarisation; 0.5 nM FITC-labeled peptide, chromodomain serially diluted (wild types 200-0.2 µM; Cbx7.V1 and Cbx.VDs 50 µM-50 nM); 25 °C, 30 min; 25 mM HEPES pH 7.5, 150 mM NaCl, 1 mM DTT, 0.01% TritonX-100; one-site total binding model; values of single replicates

In the case of “Cbx1 chromodomain with the Asp9/Glu33 double substitution (from UniProt P83916 20-73) (domain or fragment)”, the Kd [1] is reported as 582 nM and 632 nM and 600 nM.

With “Cbx7.wt E8H; Q9D; A12P; K33R; G34D; P37E; K38Q” the response (Absorbance at 450 nm) [2] was 0.08 and the response (Absorbance at 450 nm) [3] was 0.55.

With “Cbx5 chromodomain with the Asp9/Glu33 double substitution (from UniProt P45973 18-75) (domain or fragment)” the Kd [1] was 560 nM and 440 nM and 510 nM.

For “Cbx3 chromodomain with the Asp9/Glu33 double substitution (from UniProt Q13185 29-86) (domain or fragment)”, the Kd [1] was 390 nM and 290 nM and 370 nM.

Work on “Cbx2.VD chromodomain, Asp9/Glu33 (tags removed) (from UniProt Q14781 9-62) (domain or fragment)” yielded a Kd [4] of 3000 nM and a Kd [5] of 5000 nM.

Substance “Cbx3.VD chromodomain, Asp9/Glu33 (tags removed) (from UniProt Q13185 29-86) (domain or fragment)” has a Kd [5] of 350 nM.

Work on “Cbx1.VD chromodomain, Asp9/Glu33 (tags removed) (from UniProt P83916 20-73) (domain or fragment)” yielded a Kd [5] of 600 nM.

For “Cbx8.VD chromodomain, Asp9/Glu33 (tags removed) (from UniProt Q9HC52 8-61) (domain or fragment)”, the Kd [4] was over 50000 nM and the Kd [5] was 20000 nM.

In the case of Cbx7.wt (domain or fragment), the Kd [6] is reported as 27000 nM.

For Cbx7 chromodomain (from UniProt O95931), the Kd [7] is listed as 55000 nM.

“Cbx7.wt E8D; Q9D; V10I; K33E; P37L; K38E” gave a response (Absorbance at 450 nm) [2] of 0.12.

Work on “Cbx7.wt G7C; Q9Y; V10I; A12S; K33E; K38E; S40M” yielded a response (Absorbance at 450 nm) [2] of 0.12 and a response (Absorbance at 450 nm) [3] of 0.5.

With “Cbx2 chromodomain with the Asp9/Glu33 double substitution (from UniProt Q14781 9-62) (domain or fragment)” the Kd [8] was 2400 nM and 2100 nM and 4300 nM and the Kd [1] was 4000 nM and 6000 nM and 5000 nM.

With “Cbx7.wt G7C; E8D; Q9N; F11Y; A12P; P37L; K38E” the response (Absorbance at 450 nm) [2] was 0.11 and the response (Absorbance at 450 nm) [3] was 1.9.

For “Cbx8 chromodomain with the Asp9/Glu33 double substitution (from UniProt Q9HC52 8-61) (domain or fragment)”, the Kd [1] was 21000 nM and 26000 nM and 16000 nM.

Substance “Cbx5.VD chromodomain, Asp9/Glu33 (tags removed) (from UniProt P45973 18-75) (domain or fragment)” has a Kd [5] of 500 nM.

With Cbx7.wt G7F; Q9D; A12P; P37S; K38E the response (Absorbance at 450 nm) [2] was 0.13 and the response (Absorbance at 450 nm) [3] was 0.73.

Substance Cbx7.wt G7C; E8D; Q9N; K33E; P37Q; K38E has a response (Absorbance at 450 nm) [2] of 0.09 and a response (Absorbance at 450 nm) [3] of 0.52.
